According to US20070093646A1 (BIOTIE THERAPIES, published 2007):

Target: the molecule itself
Assay: X-ray crystal structure, 3.2 A, molecular replacement; one dimer per asymmetric unit
Description: One crystal was mounted in a capillary and preliminary X-ray analysis was carried out in-house using a rotating-anode radiation source (Cu Kα radiation, 50 kV, 150 mA) and MAR345 image plate detector. The crystal, however, diffracted to only 8 Å resolution and the space group could not be accurately determined. All further X-ray analysis, as well as data collection, was carried out using synchrotron radiation at the beamline X11 (EMBL/DESY Hamburg, Germany) equipped with a MAR Research CCD detector. For data collection, the crystals were cryo-protected with 20% (v/v) glycerol and flash-frozen in a 100 K nitrogen stream. Diffraction data, collected from three different crystals, were processed with the program XDS. The solvent content and Matthews coefficient were calculated assuming a molecular weight of 90 kDa per monomer and using the CCP4 suite.
The structure of VAP-1 was solved by molecular replacement using the program AMORE (Navaza, 1994) of the CCP4i program suite (Collaborative Computational Project, 1994). This method confirmed that the space group of VAP-1 crystals was P6522 with one biological unit, a dimer per asymmetric unit. […]
Electron density maps were calculated with FFT of CCP4i suite and were predictable enough to trace the VAP-1 polypeptide, even though, at the beginning of building, in several fragments. […]

B1: human vascular adhesion protein-1 (VAP-1) (enzyme)
chain: MNQKTILVLLILAVITIFALVCVLLVGRGGDGGEPSQLPHCPSVSPSAQPWTHPGQSQLFADLSREELTAVMRFLTQRLGPGLVDAAQARPSDNCVFSVELQLPPKAAALAHLDRGSPPPAREALAIVFFGRQPQPNVSELVVGPLPHPSYMRDVTVERHGGPLPYHRRPVLFQEYLDIDQMIFNRELPQASGLLHHCCFYKHRGRNLVTMTTAPRGLQSGDRATWFGLYYNISGAGFFLHHVGLELLVNHKALDPARWTIQKVFYQGRYYDSLAQLEAQFEAGLVNVVLIPDNGTGGSWSLKSPVPPGPAPPLQFYPQGPRFSVQGSRVASSLWTFSFGLGAFSGPRIFDVRFQGERLVYEISLQEALAIYGGNSPAAMTTRYVDGGFGMGKYTTPLTRGVDCPYLATYVDWHFLLESQAPKTIRDAFCVFEQNQGLPLRRHHSDLYSHYFGGLAETVLVVRSMSTLLNYDYVWDTVFHPSGAIEIRFYATGYISSAFLFGATGKYGNQVSEHTLGTVHTHSAHFKVDLDVAGLENWVWAEDMVFVPMAVPWSPEHQLQRLQVTRKLLEMEEQAAFLVGSATPRYLYLASNHSNKWGHPRGYRIQMLSFAGEPLPQNSSMARGFSWERYQLAVTQRKEEEPSSSSVFNQNDPWAPTVDFSDFINNETIAGKDLVAWVTAGFLHIPHAEDIPNTVTVGNGVGFFLRPYNFFDEDPSFYSADSIYFRGDQDAGACEVNPLACLPQAAACAPDLPAFSHGGFSHN
modifications: topaquinone (Tpq471) formed by post-translational modification of an intrinsic tyrosine at 471; N-glycan attached to Asn232; one copper ion per monomer in the active site
notes: Full-length protein was crystallized; Only residues A55-A761 and B57-B761 are modelled in the structure, with a few gaps; PDB entries are printed as IPU4 (probably 1PU4) and 1US1; also called hVAP-1; HVAP-1
binding result: binds
